These results are taken from publication PMC7343221 (Nature structural & molecular biology, 2020).

This series concerns the molecule itself. Briefly: cryo-EM structure.

B1: N-terminal IST1 R16E/K27E mutant (IST1NTD^R16E/K27E) (domain or fragment, human, UniProt P53990 1-189, looked up)
chain: MLGSGFKAERLRVNLELVINRLKLLEEKKTELAQKARKEIADYLAAGKDERARIRVEHIIREDYLVEAMEILELYCDLLLARFGLIQSMKELDSGLAESVSTLIWAAPRLQSEVAELKIVADQLCAKYSKEYGKLCRTNQIGTVNDRLMHKLSVEAPPKILVERYLIEIAKNYNVPYEPDSVVMAEAPP
As to B1, the binding result was “binds”.
